Where a chain is given by its changes, count along the chain named. In names and notes the source's numbering stands. Each block holds one molecule with its values, some of them ahead of it.
How the values were obtained:
[1] = biological target: hSlo1EM-eGFP-twin-strep (human Slo1 channel, tags on) (human)
[2] = biological target: hSlo1EM (human Slo1 channel, tags released) (human); test: SEC
SEC = biological target: the molecule itself; test: SEC
[3] = biological target: hSlo1EM-eGFP-twin-strep (human Slo1 channel, tags on) (human); remark: listed apart in the source
[4] = biological target: hSlo1EM-eGFP-twin-strep (human Slo1 channel, tags on) (human); remark: listed apart in the source
[5] = biological target: hSlo1EM-eGFP-twin-strep (human Slo1 channel, tags on) (human); remark: listed apart in the source
[6] = biological target: hSlo1EM (human Slo1 channel, tags released) (human); test: cryo-EM structure
cryo-EM structure = biological target: the molecule itself; test: cryo-EM structure

hSlo1EM-eGFP-twin-strep (human Slo1 channel, tags on) (human), sequence (Q12791 whole entry): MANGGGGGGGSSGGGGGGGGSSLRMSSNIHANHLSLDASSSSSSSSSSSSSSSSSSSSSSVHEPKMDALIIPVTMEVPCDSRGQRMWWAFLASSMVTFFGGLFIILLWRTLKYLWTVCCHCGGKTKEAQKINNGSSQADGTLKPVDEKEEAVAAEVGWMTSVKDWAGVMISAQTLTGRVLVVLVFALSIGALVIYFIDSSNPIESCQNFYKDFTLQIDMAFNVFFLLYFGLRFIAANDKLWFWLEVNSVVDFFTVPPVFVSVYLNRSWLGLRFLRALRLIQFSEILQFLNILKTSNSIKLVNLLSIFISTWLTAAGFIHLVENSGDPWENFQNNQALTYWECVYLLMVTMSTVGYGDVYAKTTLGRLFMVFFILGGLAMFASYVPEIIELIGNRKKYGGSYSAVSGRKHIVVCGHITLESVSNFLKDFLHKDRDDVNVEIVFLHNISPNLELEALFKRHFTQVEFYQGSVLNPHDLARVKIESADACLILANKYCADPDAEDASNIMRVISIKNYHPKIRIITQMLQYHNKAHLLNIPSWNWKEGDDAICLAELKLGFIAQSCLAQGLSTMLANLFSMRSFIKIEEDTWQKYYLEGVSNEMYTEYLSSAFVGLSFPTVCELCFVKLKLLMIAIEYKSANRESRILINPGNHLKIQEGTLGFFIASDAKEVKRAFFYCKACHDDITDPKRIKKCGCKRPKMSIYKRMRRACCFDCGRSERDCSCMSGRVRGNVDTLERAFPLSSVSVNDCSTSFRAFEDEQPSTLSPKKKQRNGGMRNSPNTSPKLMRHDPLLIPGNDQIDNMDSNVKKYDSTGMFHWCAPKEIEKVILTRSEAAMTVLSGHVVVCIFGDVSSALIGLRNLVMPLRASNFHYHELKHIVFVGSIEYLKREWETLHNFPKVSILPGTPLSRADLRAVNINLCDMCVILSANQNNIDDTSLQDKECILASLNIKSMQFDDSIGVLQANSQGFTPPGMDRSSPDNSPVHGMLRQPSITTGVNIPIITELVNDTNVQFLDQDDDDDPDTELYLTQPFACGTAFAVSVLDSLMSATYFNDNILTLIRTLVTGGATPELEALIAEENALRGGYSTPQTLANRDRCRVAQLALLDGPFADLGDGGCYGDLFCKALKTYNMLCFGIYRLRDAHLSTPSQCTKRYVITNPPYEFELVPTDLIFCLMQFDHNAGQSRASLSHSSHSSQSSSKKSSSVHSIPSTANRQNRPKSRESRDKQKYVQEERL

Molecule: hSlo1EM-eGFP-twin-strep (human Slo1 channel, tags on) (natural protein)
stoichiometry N [1]: 4 subunits

B1: LRRD of γ1 (residues 1-261)-mCherry-FLAG (domain or fragment, human, UniProt Q2I0M4 27-261, looked up)
chain: QVSATASPSGSLGAPDCPEVCTCVPGGLASCSALSLPAVPPGLSLRLRALLLDHNRVRALPPGAFAGAGALQRLDLRENGLHSVHVRAFWGLGALQLLDLSANQLEALAPGTFAPLRALRNLSLAGNRLARLEPAALGALPLLRSLSLQDNELAALAPGLLGRLPALDALHLRGNPWGCGCALRPLCAWLRRHPLPASEAETVLCVWPGRLTLSPLTAFSDAAFSHCAQPLALRD
binding result (SEC): binds

B3: γ1 P270F-mCherry-FLAG (natural protein)
chain: QVSATASPSGSLGAPDCPEVCTCVPGGLASCSALSLPAVPPGLSLRLRALLLDHNRVRALPPGAFAGAGALQRLDLRENGLHSVHVRAFWGLGALQLLDLSANQLEALAPGTFAPLRALRNLSLAGNRLARLEPAALGALPLLRSLSLQDNELAALAPGLLGRLPALDALHLRGNPWGCGCALRPLCAWLRRHPLPASEAETVLCVWPGRLTLSPLTAFSDAAFSHCAQPLALRDLAVVYTLGFASFLVSLASCLALGSGLTACRARRRRLRTAALRPPRPPDPNPDPDPHGCASPADPGSPAAAAQA
stoichiometry N (γ subunits per Slo1 tetramer) [5]: 2.4

B5: β2 subunit-mCherry-FLAG (natural protein)
chain: MFIWTSGRTSSSYRHDEKRNIYQKIRDHDLLDKRKTVTALKAGEDRAILLGLAMMVCSIMMYFLLGITLLRSYMQSVWTEESQCTLLNASITETFNCSFSCGPDCWKLSQYPCLQVYVNLTSSGEKLLLYHTEETIKINQKCSYIPKCGKNFEESMSLVNVVMENFRKYQHFSCYSDPEGNQKSVILTKLYSSNVLFHSLFWPTCMMAGGVAIVAMVKLTQYLSLLCERIQRINR
percent of total Slo1 in complex [4]: > 90% | stoichiometry N (auxiliary subunits per Slo1 tetramer) [5]: 4

B6: LRRC38 (γ4)-mCherry-FLAG (natural protein)
chain: CPAGCACTDPHTVDCRDRGLPSVPDPFPLDVRKLLVAGNRIQRIPEDFFIFYGDLVYLDFRNNSLRSLEEGTFSGSAKLVFLDLSYNNLTQLGAGAFRSAGRLVKLSLANNNLVGVHEDAFETLESLQVLELNDNNLRSLSVAALAALPALRSLRLDGNPWLCDCDFAHLFSWIQENASKLPKGLDEIQCSLPMESRRISLRELSEASFSECRFSLSLTDLCIIIFSGVAVSIAAIISSFFLATVVQCLQRCAPNKDAEDEDEDKDD
percent of total Slo1 in complex [4]: < 10%

B7: LRRC55 (γ3)-mCherry-FLAG (natural protein)
chain: GTSCPVLCTCRNQVVDCSSQRLFSVPPDLPMDTRNLSLAHNRITAVPPGYLTCYMELQVLDLHNNSLMELPRGLFLHAKRLAHLDLSYNNFSHVPADMFQEAHGLVHIDLSHNPWLRRVHPQAFQGLMQLRDLDLSYGGLAFLSLEALEGLPGLVTLQIGGNPWVCGCTMEPLLKWLRNRIQRCTADSQLAECRGPPEVEGAPLFSLTEESFKACHLTLTLDDYLFIAFVGFVVSIASVATNFLLGITANCCHRWSKASEEEEI
percent of total Slo1 in complex [4]: < 10%

More lines, main results first:

stoichiometry N [2]: 4 subunits
Molecule: hSlo1EM (human Slo1 channel, tags released) (natural protein)

stoichiometry N (γ1 subunits per Slo1 tetramer) [3]: 3.5 | percent of total Slo1 in complex [4]: 50% | stoichiometry N (auxiliary subunits per Slo1 tetramer) [5]: 4
B2: human LRRC26 (γ1)-mCherry-FLAG (natural protein, UniProt Q2I0M4 27-334, looked up)
chain: B3 chain with F244P
binding result (SEC): binds

stoichiometry N (γ1 subunits per Slo1 tetramer) [6]: 4
B4: human LRRC26 (γ1) subunit, tags released (natural protein, UniProt Q2I0M4 27-334, looked up)
chain: B3 chain with F244P
modifications: density at N147 likely corresponding to glycosylation
binding result (cryo-EM structure): binds

percent of total Slo1 in complex [4]: > 90% | stoichiometry N (auxiliary subunits per Slo1 tetramer) [5]: 4
B8: β4 subunit-mCherry-FLAG (natural protein)
chain: MAKLRVAYEYTEAEDKSIRLGLFLIISGVVSLFIFGFCWLSPALQDLQATEANCTVLSVQQIGEVFECTFTCGADCRGTSQYPCVQVYVNNSESNSRALLHSDEHQLLTNPKCSYIPPCKRENQKNLESVMNWQQYWKDEIGSQPFTCYFNQHQRPDDVLLHRTHDEIVLLHCFLWPLVTFVVGVLIVVLTICAKSLAVKAEAMKKRKFS

Source: publication doi:10.1101/2023.12.20.572542 (bioRxiv, 2023)
